Results: US20040001842A1
Blank lines part the entries; values can stand above or below the molecule they belong to.

Experiments:
[1] = target: human CCK-B/gastrin receptor (human) (UniProt P32239); assay: 125I-labelled serum injected into nude mice with C170HM2 liver xenografts, CPM/g
[2] = target: CCK-B/gastrin receptor on AR42J cells (rat pancreatic adenocarcinoma) (rat) (UniProt P30553); assay: radioligand inhibition on AR42J cells, GnRH against 125I-hG17
[3] = target: affinity purified rabbit Anti-GRE11 antibodies; assay: quantitative immunofluorescence on H69 cells, peptide as inhibitor, relative to GnRH
[4] = target: affinity purified rabbit Anti-GRE11 antibodies; assay: quantitative immunofluorescence on H69 cells, 1:1 mixture of GRE1 and GRE6 as inhibitor, relative to GnRH
[5] = target: Affinity purified rabbit anti-GRE1 antibodies; assay: inhibition ELISA, mixture of GRE1 EPT and Ser spacer in solution against GRE1-Ser-BSA on the plate
[6] = target: Affinity purified rabbit anti-GRE1 antibodies; assay: inhibition ELISA, peptide in solution against GRE1-Ser-BSA on the plate

UniProt P30553, sequence (P30553 whole entry): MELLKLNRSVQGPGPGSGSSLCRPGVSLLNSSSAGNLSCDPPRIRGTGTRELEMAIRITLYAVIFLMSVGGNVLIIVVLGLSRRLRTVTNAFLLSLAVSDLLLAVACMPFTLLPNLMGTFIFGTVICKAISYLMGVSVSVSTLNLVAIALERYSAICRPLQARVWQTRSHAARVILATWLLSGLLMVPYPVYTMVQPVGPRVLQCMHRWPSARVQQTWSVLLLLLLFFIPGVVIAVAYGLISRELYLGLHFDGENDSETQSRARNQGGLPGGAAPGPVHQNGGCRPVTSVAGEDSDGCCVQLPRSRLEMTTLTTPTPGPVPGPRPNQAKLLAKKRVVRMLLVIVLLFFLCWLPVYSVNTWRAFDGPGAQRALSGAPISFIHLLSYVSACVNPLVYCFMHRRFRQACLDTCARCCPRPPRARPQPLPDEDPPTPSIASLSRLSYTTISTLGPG

B2: GRE6 peptide (peptide)
peptide: MELLKLNRSVQGC
percent inhibition of antibody binding [3]: 4%

B3: GRE1 EPT peptide (peptide)
peptide: KLNRSVQGTGPGPGASL
percent inhibition of antibody binding [3]: 57%
percent inhibition of antibody binding [4]: 49%
% inhibition [5]: 60%
% inhibition [6]: 60%

More lines, now with the values ahead:

liver tumor/liver ratio of radiolabel [1]: 1
Molecule: normal rabbit serum

% inhibition of 125I-hG17 binding [2]: 6%
Molecule: gonadotropin releasing hormone (from UniProt P01148 24-33) (peptide)

percent inhibition of antibody binding [3]: 84%
B1: GRE11 peptide (peptide)
peptide: MELLKLNRSVQGTGPGPGASLC
